The supplement of paper PMC11246515
± gives the standard deviation of the averaged measurements.

Test: total protein half-life in vivo (active degradation + dilution); higher = more stable protein
[1] = wild type E. coli NCM3722, growth: P-lim chemostat, doubling time 6 h
[2] = wild type E. coli NCM3722, growth: P-lim chemostat, doubling time 12 h
[3] = E. coli NCM3722 delta-clpP delta-lon delta-hslV, growth: N-lim chemostat, doubling time 6 h
[4] = E. coli NCM3722 delta-clpP, growth: N-lim chemostat, doubling time 6 h
[5] = E. coli NCM3722 delta-lon, growth: N-lim chemostat, doubling time 6 h
[6] = E. coli NCM3722 delta-smpB, growth: N-lim chemostat, doubling time 6 h
[7] = wild type E. coli NCM3722, growth: C-lim chemostat, doubling time 3 h
[8] = wild type E. coli NCM3722, growth: C-lim chemostat, doubling time 6 h
[9] = wild type E. coli NCM3722, growth: C-lim chemostat, doubling time 12 h
[10] = wild type E. coli NCM3722, growth: N-lim chemostat, doubling time 6 h
[11] = wild type E. coli NCM3722, growth: N-lim chemostat, doubling time 12 h
[12] = E. coli NCM3722 delta-hslV, growth: N-lim chemostat, doubling time 6 h

Sequence	total protein half-life in vivo [1]	total protein half-life in vivo [2]	total protein half-life in vivo [3]	total protein half-life in vivo [4]	total protein half-life in vivo [5]	total protein half-life in vivo [6]	total protein half-life in vivo [7]	total protein half-life in vivo [8]	total protein half-life in vivo [9]	total protein half-life in vivo [10]	total protein half-life in vivo [11]	total protein half-life in vivo [12]
MHADTATRQHWMSVLAHSQPAELAARLNALNITADYEVIRAAETGLVQIQARMGGTGERFFAGDATLTRAAVRLTDGTLGYSWVQGRDKQHAERCALIDALMQQSRHFQNLSETLIAPLDADRMARIAARQAEVNASRVDFFTMVRGDNA	1.11 ± 1.1 h	1.64 ± 0.035 h	–	–	–	–	–	–	–	–	–	–
MHENQQPQTEAFELSAAEREAIEHEMHHYEDPRAASIEALKIVQKQRGWVPDGAIHAIADVLGIPASDVEGVATFYSQIFRQPVGRHVIRYCDSVVCHINGYQGIQAALEKKLNIKPGQTTFDGRFTLLPTCCLGNCDKGPNMMIDEDTHAHLTPEAIPELLERYK [P0AFD1]	4.85 ± 0.61 h	11 ± 0.14 h	5.62 ± 0.92 h	5.62 ± 0.45 h	5.97 ± 0.51 h	6.57 ± 0.34 h	2.65 ± 0.54 h	4.79 ± 0.22 h	8.87 ± 1.4 h	5.04 ± 0.18 h	10.3 ± 0.36 h	–
MHKAILNSDLIATKAGDVTVYNYDGETREYISTSNEYLAVGVGIPACSCLDAPGTHKAGYAICRSADFNSWEYVPDHRGETVYSTKTGESKEIKAPGDYPENTTTIAPLSPYDKWDGEKWVTDTEAQHSAAVDAAEAQRQSLIDAAMASISLIQLKLQAGRKLTQAETTRLNAVLDYIDAVTATDTSTAPDVIWPELPEA	–	–	–	2.37 h	1.83 h	2.04 ± 0.18 h	–	–	3.87 h	3.06 h	3.07 ± 0.66 h	–
MHLITQKALKDAAEKYPQHKTELVALGNTIAKGYFKKPESLKAVFPSLDNFKYLDKHYVFNVGGNELRVVAMVFFESQKCYIREVMTHKEYDFFTAVHRTKGKK	6.72 h	10.1 ± 0.64 h	–	–	–	–	–	–	–	–	–	–
MHLSTHPTSYPTRYQEIAAKLEQELRQHYRCGDYLPAEQQLAARFEVNRHTLRRAIDQLVEKGWVQRRQGVGVLVLMRPFDYPLNAQARFSQNLLDQGSHPTSEKLLSVLRPASGHVADALGITEGENVIHLRTLRRVNGVALCLIDHYFADLTLWPTLQRFDSGSLHDFLREQTGIALRRSQTRISARRAQAKECQRLEIPNMSPLLCVRTLNHRDGESSPAEYSVSLTRADMIEFTMEH	0.458 ± 0.023 h	1.54 ± 0.86 h	–	–	–	–	–	6.73 h	–	–	–	–
MHNDKDLSTWQTFRRLWPTIAPFKAGLIVAGVALILNAASDTFMLSLLKPLLDDGFGKTDRSVLVWMPLVVIGLMILRGITSYVSSYCISWVSGKVVMTMRRRLFGHMMGMPVSFFDKQSTGTLLSRITYDSEQVASSSSGALITVVREGASIIGLFIMMFYYSWQLSIILIVLAPIVSIAIRVVSKRFRNISKNMQNTMGQVTTSAEQMLKGHKEVLIFGGQEVETKRFDKVSNRMRLQGMKMVSASSISDPIIQLIASLALAFVLYAASFPSVMDSLTAGTITVVFSSMIALMRPLKSLTNVNAQFQRGMAACQTLFTILDSEQEKDEGKRVIERATGDVEFRNVTFTYPGRDVPALRNINLKIPAGKTVALVGRSGSGKSTIASLITRFYDIDEGEILMDGHDLREYTLASLRNQVALVSQNVHLFNDTVANNIAYARTEQYSREQIEEAARMAYAMDFINKMDNGLDTVIGENGVLLSGGQRQRIAIARALLRDSPILILDEATSALDTESERAIQAALDELQKNRTSLVIAHRLSTIEKADEIVVVEDGVIVERGTHNDLLEHRGVYAQLHKMQFGQ	5.9 ± 0.39 h	11.3 ± 0.23 h	5.89 ± 0.51 h	5.99 ± 0.27 h	6.51 ± 0.63 h	6.04 ± 0.25 h	3.38 ± 0.053 h	5.63 ± 0.13 h	11.4 ± 3 h	6.15 ± 0.19 h	–	6.35 ± 0.47 h
MHPRFQTAFAQLADNLQSALEPILADKYFPALLTGEQVSSLKSATGLDEDALAFALLPLAAACARTPLSNFNVGAIARGVSGTWYFGANMEFIGATMQQTVHAEQSAISHAWLSGEKALAAITVNYTPCGHCRQFMNELNSGLDLRIHLPGREAHALRDYLPDAFGPKDLEIKTLLMDEQDHGYALTGDALSQAAIAAANRSHMPYSKSPSGVALECKDGRIFSGSYAENAAFNPTLPPLQGALILLNLKGYDYPDIQRAVLAEKADAPLIQWDATSATLKALGCHSIDRVLLA [P0ABF6]	5.88 ± 0.059 h	11.7 ± 0.35 h	5.28 ± 0.35 h	5.6 ± 0.071 h	6.28 ± 0.78 h	4.89 ± 0.18 h	–	6.09 ± 0.4 h	10.7 ± 0.78 h	5.04 ± 0.077 h	8.624 ± 0.078 h	6 ± 1.1 h
MHPTGPHLGPDVLFRESNMKVTLTFNEQRRAAYRQQGLWGDASLADYWQQTARAMPDKIAVVDNHGASYTYSALDHAASCLANWMLAKGIESGDRIAFQLPGWCEFTVIYLACLKIGAVSVPLLPSWREAELVWVLNKCQAKMFFAPTLFKQTRPVDLILPLQNQLPQLQQIVGVDKLAPATSSLSLSQIIADNTSLTTAITTHGDELAAVLFTSGTEGLPKGVMLTHNNILASERAYCARLNLTWQDVFMMPAPLGHATGFLHGVTAPFLIGARSVLLDIFTPDACLALLEQQRCTCMLGATPFVYDLLNVLEKQPADLSALRFFLCGGTTIPKKVARECQQRGIKLLSVYGSTESSPHAVVNLDDPLSRFMHTDGYAAAGVEIKVVDDARKTLPPGCEGEEASRGPNVFMGYFDEPELTARALDEEGWYYSGDLCRMDEAGYIKITGRKKDIIVRGGENISSREVEDILLQHPKIHDACVVAMSDERLGERSCAYVVLKAPHHSLSLEEVVAFFSRKRVAKYKYPEHIVVIEKLPRTTSGKIQKFLLRKDIMRRLTQDVCEEIE	–	–	7.05 h	–	–	–	–	–	–	–	–	–
